Data on two compounds can be found in patent publication US7375074B2, “Body weight gain inhibitor” (priority 2001, dated 2008).

Assay [1] deals with T1, human GPR8 (Homo sapiens, UniProt P48146).
T1 construct: expressed in transfected cells; host or cells: CHO dhfr- cells, plasmid pAKKO-GPR8; membrane fraction
The assay can be described thus: Receptor binding using [125I-Tyr10]-hGPR8L(1-23) and membrane fraction of GPR8 expressing CHO cells. Conditions: membrane fraction of human GPR8 expressing cells.

Assay [2] addresses T2, TGR26 (Rattus norvegicus, UniProt Q56UD9).
T2 construct: treated with restriction enzymes ClaI and SpeI, and the insert encoding TGR26 was excised; expressed in transfected cells; host or cells: CHO dhfr- cells, plasmid pAK-rGPR7; membrane fraction
T2 sequence (Q56UD9 1-329): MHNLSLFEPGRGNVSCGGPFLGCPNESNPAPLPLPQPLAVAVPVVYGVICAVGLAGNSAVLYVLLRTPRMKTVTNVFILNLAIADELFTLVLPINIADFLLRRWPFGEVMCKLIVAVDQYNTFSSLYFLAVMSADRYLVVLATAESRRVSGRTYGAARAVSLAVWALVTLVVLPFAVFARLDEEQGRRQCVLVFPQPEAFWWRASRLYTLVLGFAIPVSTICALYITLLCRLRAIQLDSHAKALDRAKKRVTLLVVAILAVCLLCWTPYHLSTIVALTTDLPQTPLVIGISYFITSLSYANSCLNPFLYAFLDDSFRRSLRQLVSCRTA
Nature of the assay: Receptor binding using [125I-Tyr10]-hGPR8L(1-23) and membrane fraction of TGR26 expressing CHO cells. Conditions: membrane fraction of TGR26 expressing CHO cells, 3 μg/ml. The protocol:
Using [^125I-Tyr^10]-hGPR8L(1-23) prepared by the method described in Reference Example 42 and a cell membrane fraction prepared from TGR26 expressing cells as described in Example 6, a receptor binding assay was carried out as follows.
Cell membrane fraction prepared from TGR26 expressing cells was diluted to various concentration with assay buffer (25 mM Tris-HCl, 5 mM EDTA, 0.05% CHAPS (3-[(3-Cholamidopropyl) Dimethyl-Ammonio]-1-Propanesulfonate), 0.1% BSA, 0.5 mM PMSF, 1 μg/ml Pepstatin, 20 μg/ml Leupeptin, 4 μg/ml E-64, pH7.4), and 200 μl each of the diluent was dispensed into polypropilene test tube (Falcon 2053). In order to determine an amount of maximum binding, 2 μl of DMSO and 2 μl of 7 nM [^125I-Tyr^10]-hGPR8L(1-23) were added to the membrane fraction solution. […] After filtration, a radioactivity remaining on the filter was counted using γ-counter, and an amount of specific binding was estimated by subtracting an amount of non-specific binding from an amount of maximum binding. […]
A receptor binding activity of human- and porcine-homologue derivatives of GPR8 ligand peptide obtained in the reference examples was measured using a membrane fraction of TGR26 expressing CHO cells and [^125I-Tyr^10]-hGPR8L(1-23) by the method described in Reference Example 73. […]

No end group written: not given here. *: point of attachment. 125I = [125I]*

T1 sequence (P48146 whole entry): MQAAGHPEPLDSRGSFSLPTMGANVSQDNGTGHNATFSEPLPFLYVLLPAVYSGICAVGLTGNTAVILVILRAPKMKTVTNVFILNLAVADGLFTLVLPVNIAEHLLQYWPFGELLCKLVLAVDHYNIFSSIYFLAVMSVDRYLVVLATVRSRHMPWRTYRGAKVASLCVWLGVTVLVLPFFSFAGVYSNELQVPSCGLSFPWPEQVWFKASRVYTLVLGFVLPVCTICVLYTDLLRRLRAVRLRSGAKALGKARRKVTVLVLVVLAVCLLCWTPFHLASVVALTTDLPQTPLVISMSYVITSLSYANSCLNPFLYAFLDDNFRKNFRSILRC

For “[^125I-Tyr^10]-hGPR8L(1-23): hGPR8L(1-23) iodinated with 125I at Tyr10 by the lactoperoxidase method; radioligand (WYKHVASPRY(125I)HTVGRAAGLLMGL)”, in assay [1], the “specific binding compared with [125I-Tyr2]-hGPR8L(1-23)” value was “twice as much”.
Turning to `CSCC[C@H](NC(=O)[C@H](CC(C)C)NC(=O)[C@H](CC(C)C)NC(=O)CNC(=O)[C@H](C)NC(=O)[C@H](C)NC(=O)[C@H](CCCNC(=N)N)NC(=O)CNC(=O)[C@@H](NC(=O)[C@@H](NC(=O)[C@H](Cc1c[nH]cn1)NC(=O)[C@H](Cc1ccc(O)cc1)NC(=O)[C@H](CCCNC(=N)N)NC(=O)[C@@H]1CCCN1C(=O)[C@H](CO)NC(=O)[C@H](C)NC(=O)[C@@H](NC(=O)[C@H](Cc1c[nH]cn1)NC(=O)[C@H](CCCCN)NC(=O)[C@H](Cc1ccc(O)cc1)NC(=O)[C@@H](N)Cc1c[nH]c2ccccc12)[C@@H](C)O)[C@@H](C)O)C(C)C)C(=O)NCC(=O)N[C@@H](CC(C)C)C(=O)O` [pGPR8L(1-23)], the IC50 in assay [2] worked out at 0.12 nM.

Broadly, the IC50 is the point on the concentration scale where inhibition reaches its midpoint. Low readings indicate greater potency in that assay, high ones weaker potency in that assay.
